How the values were obtained:
Test in all cases: cell-based or functional assay
[1] = molecular target: Neuraminidase of influenza B/Washington/02/2019 (Victoria) (influenza B virus B/Washington/02/2019 (Victoria))
[2] = molecular target: Neuraminidase of influenza A/Hong Kong/2671/2019 (H3N2) (influenza A virus A/Hong Kong/2671/2019 (H3N2))
[3] = molecular target: neuraminidase of influenza B/Florida/4/2006 (Yamagata) (Influenza B virus)
[4] = molecular target: Neuraminidase of influenza A/Hawaii/70/2019 (H1N1)pdm09 (influenza A virus A/Hawaii/70/2019 (H1N1)pdm09)
[5] = molecular target: neuraminidase of influenza B/Malaysia/2506/2004 (Victoria) (Influenza B virus)
[6] = molecular target: Neuraminidase of influenza B/Phuket/3073/2013 (Yamagata) (influenza B virus B/Phuket/3073/2013 (Yamagata))
[7] = molecular target: neuraminidase of influenza A/Hong Kong/1/1968 (H3N2) (Influenza A virus) (UniProt Q91MA2)
Sequence of neuraminidase of influenza A/Hong Kong/1/1968 (H3N2) (Influenza A virus) (Q91MA2 whole entry): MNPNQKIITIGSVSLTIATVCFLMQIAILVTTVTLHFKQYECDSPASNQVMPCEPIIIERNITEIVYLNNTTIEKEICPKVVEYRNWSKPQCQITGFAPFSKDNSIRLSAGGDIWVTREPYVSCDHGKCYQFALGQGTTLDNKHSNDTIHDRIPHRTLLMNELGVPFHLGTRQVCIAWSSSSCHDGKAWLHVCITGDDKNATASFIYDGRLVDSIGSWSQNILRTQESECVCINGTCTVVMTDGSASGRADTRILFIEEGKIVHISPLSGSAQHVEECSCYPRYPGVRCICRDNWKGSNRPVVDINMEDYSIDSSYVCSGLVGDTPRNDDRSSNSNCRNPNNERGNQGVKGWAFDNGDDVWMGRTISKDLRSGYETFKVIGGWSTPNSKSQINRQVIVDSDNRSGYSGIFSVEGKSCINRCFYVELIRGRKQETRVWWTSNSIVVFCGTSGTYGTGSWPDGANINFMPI

[8] = molecular target: neuraminidase of influenza A/CA/7/2009 (H1N1pdm) (Influenza A virus)

hIgG1 Fc (from UniProt P01857 84-329)
> 1000 nM: enzyme-linked lectin assay (ELLA) (IC50), fetuin substrate, live virus [1] | enzyme-linked lectin assay (ELLA) (IC50), fetuin substrate, live virus [2] | enzyme-linked lectin assay (ELLA) IC50, fetuin substrate, virus [3] | enzyme-linked lectin assay (ELLA) (IC50), fetuin substrate, live virus [4] | enzyme-linked lectin assay (ELLA) IC50, fetuin substrate, virus [5] | enzyme-linked lectin assay (ELLA) (IC50), fetuin substrate, live virus [6] | enzyme-linked lectin assay (ELLA) IC50, fetuin substrate, virus [7] | enzyme-linked lectin assay (ELLA) IC50, fetuin substrate, virus [8]

— patent publication US20260108618A1
